We go through five molecules from patent US4839466A, “Insulin activity messengers” (The Rockefeller University, priority 1987, dated 1989).

For data set [1], the system named is PI-glycan PLC. The data set can be described thus: Effects of cations and sulfhydryl reagents on PI-glycan PLC (mfVSG hydrolysis). It is filed as biochemical, rat. The following applies: 25 nM mfVSG, 2 hr at 37° C.; for Activity (dpm/2 hr): no addition 3970. The method, then: Assay of PI-glycan PLC Activity. Enzyme activity was assayed at 37° C. in a final volume of 1 ml with [^3 H]myristate-labeled C-terminal glycopeptide in 25 mM Tris, pH 7.4, with 0.1% NP-40. The reaction was terminated after 1 hr. by extraction with 1 ml toluene. Organic and aqueous phases were separated by brief centrifugation at 100 ×g and the organic phase was taken to dryness in vacuo, redissolved in 40 ul of chloroform:methanol (2:1) containing 5 ug dimyristylglycerol, and spotted on a Silica G TLC plate which had been preactivated by baking at 125° C. for 1-2 hr. The plate was developed twice in petroleum ether:diethyl ether:acetic acid (70:30:2) and then stained with iodine vapor to localize DAG. The DAG region was scraped and counted. Alternatively, 0.5 ml of the organic phase was taken directly for liquid scintillation counting.
Samples from each stage of the purification were incubated in 1 ml with 25 nM [3H]mfVSG for 2 hr at 37° C. and then extracted twice with 1 ml chloroform:methanol (200:1). The organic phases were taken to dryness and analyzed by TLC as described under Experimental Procedures. Each assay was performed in duplicate and was consistant within 10%.
Purified PI-glycan PLC was incubated with 25 nM mfVSG in the presence of the indicated reagents for 2 hr at 37° C. Enzyme activity was assayed as described for Table VIII. All assays were performed in duplicate variance was less than 10%.

The subject of data set [2] is BC3 Hl cells. The data set can be described thus: Diacylglycerol and phosphatidic acid production in labeled BC3 Hl myocytes. It is filed as cell-based, murine. The procedure:
FIG. 12--Time Course of Diacylglycerol and Phosphatidic Acid Production in Response to Insulin. Myocytes were incubated for 20 hrs. in serum free DMEM with [9,10^3 H]myristic acid (New England Nuclear), complexed 1:1 to bovine serum albumin. Insulin was added to cells in fresh media for the designated intervals, and reactions were stopped by removal of media and addition of 1 ml chloroform/methanol/1N HCl (200:100:1). 0.6ml H2 O was added and upper aqueous phases were discarded following centrifugation at 500×g for 5 minutes. The lower, organic phases were dried under N2 and resuspended in 1 ml diethyl ether followed by addition of 1 […]. The upper ether phase was aspirated and the lower phase reextracted with 1 ml diethyl ether. The combined ether phases, containing diacylglycerol, were dried under N2, resuspended in chloroform and spotted on silica gel G plates which were preactivated at 60° C. for 1 hr. Plates were twice developed in petroleum ether/diethyl ether/glacial acetic acid (70:30:2). Five ug of unlabeled dimyristoylglycerol were added to each sample. Spots were visualized by iodine staining. To the lower aqueous phases from the ether extraction were added 1 ml of chloroform/methanol (2:1). Following centrifugation, the resulting upper aqueous phases were discarded and the lower organic phases dried under N2, resuspended in chloroform/methanol/H2 O (9:7:2) and spotted on "soft plus" silica gel plates. These were developed in chloroform/pyridine/70% formic acid (50:30:7), and phosphatidic acid was identified by an iodine stained standard. Lipids were scraped and radioactivity determined in a liquid scintillation counter.
BC3 Hl cells were cultured on collagen coated multiwell plates or petri dishes in Dulbecco's minimal essential medium (DMEM) supplemented with 20% Nu serum or 10% fetal calf serum. Cells were grown to maximal density and confluence, at which time they become responsive to insulin. Radiolabeled precursors were added for 20 hrs. in serum-free medium. [^3 H]Myristic and arachidonic acids were complexed 1:1 to bovine serum albumin prior to addition.
Following preincubations with the appropriate isotopes, cells were resuspended in DMEM without serum and treated with 10 nM insulin at the designated intervals. Reactions were terminated by the addition of 1 ml chloroform/methanol/1N HCl (200:100:1), followed by 0.5 ml 10 mM formic acid. Following centrifugation at 500 x g for 5 min., the upper phase was discarded. For phospholipid analyses, the lower, organic phase was dried under N2, resuspended in chloroform/methanol/H2 O (9:7:2) and spotted on oxalate impregnated silica gel G plates. These were sequentially developed in chloroform/acetone/methanol/glacial acidic acid/H2 O (10:4:2:2:1) and chloroform/methanol/4N NH4 OH (45:35:10). One cm regions were scraped and eluted with chloroform/methanol (2:1) and counted. Phosphoinositide standards were identified by iodine staining.
For analysis of neutral lipids, the chloroform/methanol organic phases were dried under N2 and resuspended in 1 ml diethyl ether followed by addition of 1 ml 50 mM formic acid. The upper ether phase was aspirated and the lower aqueous phase was reextracted with 1 ml diethyl ether. The pooled ether phases were dried under N2, resuspended in chloroform and spotted on silica gel G plates which were preactiviated at 60° C. for 1 hr. Plates were twice developed in petroleum ether/diethyl ether/glacial acetic acid (70:30:2). Five ug of unlabeled dimyristoyl glycerol, myristic acid and monomyristoyl glycerol were added as carriers to each sample.

Data set [3] has as its system cAMP phosphodiesterase. The data set can be described thus: Generation of PDE messenger from liver membranes by insulin or PI-PLC; extracts assayed on cAMP phosphodiesterase. The format is biochemical, rat. The procedure: These were generated from bovine liver particulate fractions by a modification of previously described methods. Particulate fraction was prepared from 100 g of bovine liver, and suspended in […] ammonium bicarbonate, pH 7.4. (Buffer A) at a final concentration of 2-4 mg protein/ml. This solution was incubated with […] for 10 min at 37° C., acidified to pH 4.0 with formic acid and sedimented at 45,000 g for 20 min. An equal volume of chloroform/methanol (2:1) was added to the supernatant, and the upper phase was aspirated and methanol was evaporated.
In the tests the results of which are tabulated above, liver membranes were treated as indicated for 10 min at 37° C., centrifuged and supernatants were extracted and purified up to and including the Dowex 50WX-4 step as described earlier herein under "Experimental Frocedures".
Partially purified extracts were assayed for ability to modulate cAMP phosphodiesterase. Basal activity was 56.2 pmoles/mg protein^-1 -min^-1.

Data set [4] is described as follows: PI-PLC treatment of lipids extracted from labeled BC3 Hl cells, TLC. It is filed as biochemical, murine. The note with it: PI-PLC 30 min. The procedure: FIG. 8--SAX HPLC of Radiolabeled Mediators Produced by PI-PLC. Cells were prelabeled as described in FIG. 7, extracted in chloroform/methanol/1N HCl (200:100:1) and centrifuged at 1000 x g for 10 min. The supernatant was dried under N2 and resuspended in 1 mil of 50 mM ammonium bicarbonate, pH 7.4. These solutions were treated with 0.1 ug/ml PI-PLC from S. aureus for 30 min. at 37° C. Reactions were terminated by reextraction with 1 ml of chloroform/methanol/1N HCl (200:100:1) and aqueous and organic phases separated. The aqueous phases were then purified as described in FIG. 7 and chromatographed on SAX HPLC column, eluted as described.
FIG. 10--Thin Layer Chromatography of the Radiolabeled Precursor After PI-PLC Treatment. Cells were labeled, extracted, treated with or without PI-PLC and reextracted as described in FIG. 8. Organic phases were chromatographed on thin layer plates as detailed in FIG. 9.

Data set [5] concerns cAMP phosphodiesterase. As to the kind of experiment: Generation of an enzyme modulator from liver plasma membranes, cAMP phosphodiesterase readout. The format is biochemical, rat. The method, then: (§1) Purification of the Enzyme Modulator. Bovine liver particulate fraction was prepared as described previously [Saltiel A. R., (1984) "Preparation and Characterization of Putative Insulin Mediators from Liver", METHODS IN DIABETES […], eds. J. Larner, S. Pohl, I:73]. Solutions were incubated in 5 mM ammonium bicarbonate, pH 7.4 with 10 nM insulin or 1 ug/ml PI-PLC as described in the figure legends. Following incubation, solutions were acidified to pH 4.0 and centrifuged at 35,000 x g for 20 minutes. Resulting supernatants were extracted with chloroform/methanol (2:1). The upper aqueous phase was aspirated and methanol was evaporated. Enzyme modulating activities were purified as described in Publication No. 6 listed earlier herein. Briefly, the extract was chromatographed on DEAE-Cellulose and eluted with 0.25M triethylamine (TEA)-formate, pH 3.75. This was followed by chromatography on C-18 reversed phase resin, in the same buffer, followed by Dowex 50W X-4 in 50 mM TEA-formate, pH 3.0. The resulting eluate was lyophilized, resuspended in 50 mM TEA-formate, pH 4.5 and sequentially chromatographed on QAE-Sephadex, SAX HPLC and a P-2 gel filtration column. Only the cyclic inositol phosphate derivative residing in Peak I was examined.
(§2) Enzyme Assays. The low Km cAMP PDE was assayed in a rat adipocyte particulate fraction as previously described [Saltiel, A. R., Steigerwalt,R. W., (1986) "Purification of Putative Insulin-Sensitive cAMP Phosphodiesterase or its Catalytic Domain From Rat Adipocytes", DIABETES, 35:698] and as later modified in Publication No. 6. Activity was linear throughout 20 min. and proportional to protein concentration. Only the low Km species of the enzyme was present in this fraction. PDH activity was assayed in liver mitoplasts after preincubation with ATP as previously described [Saltiel et al., (1982) PROC. NATL. ACAD. SCI. U.S.A., 79:3513.]. Adenylate cyclase activity was also assayed in purified adipocyte plasma membranes. For all enzyme assays, variability was less than 5%.
(§3) Liver membranes were treated with or without 10 nM insulin or 1 ug/ml PI-PLC for 10 min. at 37° C. Following cetrifugation, the supernatants were extracted and purified up to and including the SAX HPLC step. Purified extracts were added to enzyme assays at a final dilution of 1:10. Enzyme activities were assayed with no additions or after addition of purified extracts from control, insulin or PIPPLC treated membrane. Percent of basal activity is expressed in parentheses. ^1 expressed as pmoles/mg protein-min. ^2 expressed as nmoles/mg protein-min.

Data set [6] relates to Pyruvate Dehydrogenase. As to the kind of experiment: Generation of an enzyme modulator from liver plasma membranes, pyruvate dehydrogenase readout. It is filed as biochemical, rat. The method, then:
as §1, §2, §3

Data set [7] concerns Adenylate Cyclase. The data set can be described thus: Generation of an enzyme modulator from liver plasma membranes, adenylate cyclase readout. It is filed as biochemical, rat. The method, then: as §1, §2, §3
Setting [8] is: cells incubated with [3H]arachidonic acid.

`OCCS` [2-mercaptoethanol]: in data set [1] (addition at 50 mM), the “% control” value was determined as 190 % control and the “Activity (dpm/2 hr)” value is listed as 7564 dpm/2 hr.
As for `O=C(O)CN(CCOCCOCCN(CC(=O)O)CC(=O)O)CC(=O)O` [EGTA], in data set [1] (addition at 100 uM), the “% control” value worked out at 148 % control and the “Activity (dpm/2 hr)” value was 5900 dpm/2 hr.
On the same counts, the results for `[Cl][Hg][Cl]` [HgCl2] are 17 % control and 677 dpm/2 hr.
As to `CNC[C@H](O)c1ccc(O)c(O)c1` [epinephrine], the “change in [3H]myristoyl diacylglycerol” value in data set [2] ([3H]myristate labeled cells) was “no significant change”. Besides, in data set [2] (setting [8]), the “change in [3H]arachidonyl diacylglycerol” value is reported as “rapid increase” and the “time of maximal increase in [3H]arachidonyl diacylglycerol” value is 1 min.

B1: PI-PLC: purified phosphatidylinositol specific phospholipase C from S. aureus (protein, UniProt P45723 27-312, looked up)
1-phosphatidylinositol …: DGKHLTEINIPGSHDSGSFTLKDPVKSVWAKTQDKDYLTQMKSGVRFFDIRGRASADNMISVHHGMVYLHHELGKFLDDAKYYLSAYPNETIVMSMKKDYDSDSKVTKTFEEIFREYYYNNPQYQNLFYTGSNANPTLKETKGKIVLFNRMGGTYIKSGYGADTSGIQWADNATFETKINNGSLNLKVQDEYKDYYDKKVEAVKNLLAKAKTDSNKDNVYVNFLSVASGGSAFNSTYNYASHINPEIAKTIKANGKARTGWLIVDYAGYTWPGYDDIVSEIIDSNK
In the case of B1, the “stimulation/increase of production of PDE modulating activity from membranes” value in data set [3] (after partial purification, PI-PLC 1.0 ug/ml) was 6 fold. In addition, the “PDE Activity” value in data set [3] (extract of liver membranes treated 10 min at 37° C. (1.0 nM Insulin, PI-PLC), purified up to Dowex 50WX-4, basal 56.2, untreated membranes 78.5) came to 191.3 pmol mg protein^-1 min^-1. In addition, in data set [4], the “decrease in [3H]glucosamine labeling of the precursor spot” value is reported as 40%, the “decrease in [3H]inositol labeling of the precursor spot” value is reported as 60% and the “depletion of PI” value worked out at 50%. The “cAMP Phosphodiesterase, percent of basal activity” value in data set [5] (as E41) was 311.1%. For the same molecule, the “cAMP Phosphodiesterase activity” value in data set [5] (extract of liver membranes treated with 10 nM insulin or 1 ug/ml PI-PLC 10 min. 37° C., purified to SAX HPLC, dilution 1:10, no addition 61.7±4.2, control membranes 78.5±5.6) is 192±5 pmoles/mg protein-min. In addition, the “Pyruvate Dehydrogenase, percent of basal activity” value in data set [6] (as E43) amounted to 296.6%. For the same molecule, the “Pyruvate Dehydrogenase activity” value in data set [6] (extract as E41, no addition 1.77±0.07, control membranes 2.45±0.20) stood at 5.25±0.40 nmoles/mg protein-min. The “Adenylate Cyclase, percent of basal activity” value in data set [7] (as E45) is 25.0%. In addition, the “Adenylate Cyclase activity” value in data set [7] (extract as E41, no addition 272±14, control membranes 210±4) was determined as 68.7±7.6 pmoles/mg protein-min.
